Target: VDAC of isolated rat mitochondria (liver, brain) (UniProt Q9Z2L0)
Sequence (Q9Z2L0 2-283): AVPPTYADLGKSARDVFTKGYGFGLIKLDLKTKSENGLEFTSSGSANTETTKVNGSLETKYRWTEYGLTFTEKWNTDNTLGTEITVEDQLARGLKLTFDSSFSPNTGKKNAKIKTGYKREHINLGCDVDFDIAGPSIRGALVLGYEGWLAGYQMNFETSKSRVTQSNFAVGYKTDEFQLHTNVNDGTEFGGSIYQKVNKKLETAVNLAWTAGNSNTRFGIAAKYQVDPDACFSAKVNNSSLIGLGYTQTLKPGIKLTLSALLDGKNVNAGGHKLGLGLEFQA

## yeast HK
  PTP opening (swelling of energized mitochondria): The failure of non-binding species of HK, such as yeast HK, or trypsin- or chymotrypsin-treated HK-I (FIG. 2D) to prevent PTP opening
